Measured values as given in the nanobody polyreactivity screen of Harvey et al. (2022).

Experiment: yeast display, Sf9 membrane polyspecificity reagent, FACS + sequencing; frameworks hold sequencing errors
Method in brief: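 Nanobodies came from a synthetic yeast display library in Saccharomyces cerevisiae BJ5465, induced with galactose for 36–48 hours and stained for 1 hour at 4 °C with 10% biotinylated, detergent-solubilized Sf9 membrane reagent. Cells were enriched on streptavidin microbeads and then FACS-sorted, with low and high (top ~1%) gates set on anti-HA fluorescence for expression and streptavidin fluorescence for reagent binding. Each polyreactivity label reflects the gate a clone came from. Genes were amplified by colony PCR, sequenced by MiSeq 2 × 250 and filtered by CDR length.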

With “QVQLVESGGGLVQAGGSLRLSCAASGGTFIRYAMGWYRQAPGKERELVAAISSSGGSTYYADSVKGRFTISRDNAKNTVYLQMNSLKPEDTAVYYCNGRQSRFKYDYWGQGTQVTVSS” the “polyreactivity (PSR sort gate)” value was “high polyreactivity”.

For “QVQLVESVGGLVQAGGSLRLSCAASGSIFYNNAMGWYRQAPGKDRELVAAIRSTGTRTYYADSVKGRFTISRDHAKNTVYLQMNSLKAEDTAVYYCAVGDYGLWSYDYWGQGTQLTVSS”, the “polyreactivity (PSR sort gate)” value was “low polyreactivity”.

In the case of “QVQLVESGGGLVQAGGSLRLSCAASGITFKTYAMGWYRQAPGKERELVATINRGSRTNYADSVKGRFTISRDNAKNTVYLQMNSLKPEDTAVYYCAAHYTTFIPSPDGDYLGQGTQVTVSS”, the “polyreactivity (PSR sort gate)” value is reported as “low polyreactivity”.

For “QVQLLESGGGLVQAGGSLRLTCGASGITFSVNTMGWYRQAPGKDRELVAAFTSAGGTYYADSVKGRFTISRDTAKNTVYFQMISQKPEDTAVYYCATPYDIQWASESHDYWGQGTQVTVSS”, the “polyreactivity (PSR sort gate)” value was “low polyreactivity”.

With “QVQLVESGGGLVQSGGSLRLSCAASGRIFTHYAMGWYRQAPGKERELVAALSRSGGSTYYADSVKGRFTISRDNAKNTVYLQLNSLIPEDTADYYCDADGGRYFYRGTYREMNYWAQGTQVTVSS” the “polyreactivity (PSR sort gate)” value was “high polyreactivity”.

With “QVQLVESGGGLVQAGGSLRLSCAASGRIFLGNVMGWYRQAPGKERELVAAISWSGGSTYADSVKGRFTISRDNAKNTVYLQMNSLKPEDTAVYYCNAELGSYDKDYDYWGQGTQVTVSS” the “polyreactivity (PSR sort gate)” value was “low polyreactivity”.

In the case of “QVQLVESGGGLVQAGGSLRLSCAASGSTFRGNAMGWYRQAPGNEREFVAAITVSGGSTYYADSVKGRFTSSRDNAKNTVYLQMISLKPEDTAVYYCAGLTRGRGYDSWGQGTQVTVSS”, the “polyreactivity (PSR sort gate)” value is reported as “high polyreactivity”.

With “QVQLEESGGGLVQAGGSLRLSCAGSGFTFGVYAMGWYRQAPGKERELVAVIRGSGGSTYYADSVKGRFTISRDKAKNTVYLQMNSLKPEDTAGYYCAARRYQYVWSLYNYWGQGTQVTVSS” the “polyreactivity (PSR sort gate)” value was “high polyreactivity”.

With “QVQLVESGGGLVQAGGSLRLSCAASGSIFYGNAMGWYRQAPGKEREFVAAINWSGARTYYADSVKGRFTISRDNAKNTVSLQMNSLKPEDTAVYYCAAGRPFSFRYEFDYWGQGTQVTVSS” the “polyreactivity (PSR sort gate)” value was “high polyreactivity”.

With “QVQLVESGGGLVQAGGSLRLSCAASGSIFYHYVMGWYRQAPGKERELVAAISSSGRTYYADSVKGRFTISRDNAKNTVYLQMNSLKPEDTAVYYCAAYQKYYLRKYEYWGQGTQVTVSS” the “polyreactivity (PSR sort gate)” value was “low polyreactivity”.

With “QVQLVESGGGLVQAGGSLRLSCAASGFIFKRYVMGWYRQAPGKERELVAGITRSGSSTSYADSVKGRFTISRDNAKNTVYLQMNSLKPEDTAVYYCAARAWKKLDYWGQGTQVTVSS” the “polyreactivity (PSR sort gate)” value was “high polyreactivity”.

For “QVQLVESGGGLVQAGCSLRLSCAASGRIFWMNTMGRYRQAPGKERELVAAISFRSDDTYYADSVKGRFTISRDIAKNTVYLQMKSLKPEDTAVYYCNKAWFPYYFYRFDYWGQGTQVTVSS”, the “polyreactivity (PSR sort gate)” value was “high polyreactivity”.

In the case of “QVQLVESGGGLVQAGGSLRLSCAASGITFGGYAMGWYRKAPGKERELVAAITSSGGITYYADSVKGRFTISRDNAKKTVYLLLNSLKPEDTAVYYCAKVPLEIVTIRDDEDYWGQGTQVTVSS”, the “polyreactivity (PSR sort gate)” value is reported as “low polyreactivity”.

With “QVQLVESGGGLVQAGGSLRLSCAASGLTFYEYAMGWYTQAPGKERELVAAITASGGSTYYADSVKGRFTISRDNAKNTVYLQMNSLKPEDSAVYYCAAVDYVRYYPDEFDYWGQGTQVTVSS” the “polyreactivity (PSR sort gate)” value was “low polyreactivity”.

With “QVQLVESGGGIVQAGGSLRLSCAASGRTFRRYVMGWYRQAPGKERELVAAITVSGGNTYYADSVKGSFTISRDNAKNTVYLQMNSLKPEDTAVYYCNADAGAIYYRRYHFYYWGQGTQVTVSS” the “polyreactivity (PSR sort gate)” value was “low polyreactivity”.

With “QVQLVESGGGLVQAGGSLRLSCAASGRTLAGNAMGWYRQAPGQERELVAAISQGGGSTYYADSVKGRFTISRDKAKNTVYLQMNSLKPEDTAGYYCAAEIPRLWASFATLWYDYWGQGTQVTVSS” the “polyreactivity (PSR sort gate)” value was “low polyreactivity”.

With “QVQLVESGGGLVQAGGSLRLSCAASGRTFYHYAMGWYRQAPGKERELVAAITYRGGNTYYADSVKGRFTISRDNAKNTVYLQMNSLKPEDTAVYFCAKQGVRRHYGYDYWGQGTQVTVSS” the “polyreactivity (PSR sort gate)” value was “high polyreactivity”.
